Results reported in the supplement of paper PMC10724198.
± gives the standard deviation of the averaged measurements.

Tested on: Saccharomyces cerevisiae
Test: protein stability index of tFT-peptide fusion (C-terminal peptide) (PSI (0-1 scale)); higher = more stable (slower turnover)
Conditions: genetic background: wild type; temperature: 30 C
Method: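 Multiplexed protein stability (MPS) profiling in S. cerevisiae. Random 12-aa peptides (tFT-X12 library) are fused to the C-terminus of a sfGFP-mCherry tandem fluorescent timer, after mCherry and a GGGS linker. Cells are FACS-sorted into 8 mCherry/sfGFP bins and deep-sequenced. The protein stability index (PSI) is the read-weighted bin average, scaled from 0 (unstable) to 1 (stable). Only peptides with >10 reads are reported; cells were grown at 30 °C in SC-His with glucose.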
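Note: PSI is a weighted mean of sequencing reads over stability bins, variants kept only with over 10 reads, mCherry proximal and sfGFP distal, peptide attached via GGGS linker.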

| Sequence | protein stability index |
| --- | --- |
| GGRQTAVSGLLL | 0.685 ± 0.017 |
| GRCLSGRVVGGG | 0.7145 ± 0.0014 |
| RPPTASPLVAPA | 0.655 ± 0.0067 |
| EGVSNGCAILLF | 0.673 ± 0.029 |
| LFVHTPCPFEVR | 0.673 ± 0.023 |
| WHRTGPFCGFPC | 0.766 ± 0.17 |
| RVRRAGSGWCGK | 0.729 ± 0.0073 |
| QGCAWWGGGAGG | 0.684 ± 0.038 |
| SAFPSRVIGGGV | 0.661 ± 0.01 |
| PGVFEITPVMLI | 0.6949 ± 0.0055 |
| GPTRAIIFERRY | 0.741 ± 0.17 |
| IQLQSNGLYSKK | 0.665 ± 0.065 |
| LCKGCEGGVMQR | 0.666 ± 0.037 |
| RRAGRGGIGKGG | 0.591 ± 0.018 |
| PMVETKVGGIAN | 0.705 ± 0.043 |
| PRGAVGSRPAGR | 0.677 ± 0.034 |
| LLPPSLLSPPPF | 0.696 ± 0.094 |
| EKKNGKEKEKER | 0.6647 ± 0.0062 |
| GGGGGGVRVARW | 0.687 ± 0.07 |
| RRNARRARARWR | 0.637 ± 0.065 |
| WTSGCLEIFRRE | 0.702 ± 0.033 |
| PPPVPPPAPLLS | 0.642 ± 0.074 |
| WARSLPHPISRR | 0.803 ± 0.064 |
| RVIPRTRISLLS | 0.575 ± 0.0075 |
| SPPVPLPYLASP | 0.663 ± 0.061 |

| Sequence | protein stability index |
| --- | --- |
| PPPPRPLPPAPP | 0.63 ± 0.075 |
| SPRPIKCRPLLI | 0.62 ± 0.018 |
| PSTILLRYRPSV | 0.825 ± 0.16 |
| PVFNDDTIIRNP | 0.761 ± 0.032 |
| PSRSLSSPPSSR | 0.64 ± 0.019 |
| PPLGPTSARALA | 0.619 ± 0.014 |
| SPPLPRLSPLPN | 0.6863 ± 0.0012 |
| AFFLVLSAFRWI | 0.541 ± 0.091 |
| PPRRLPALPSPL | 0.774 ± 0.014 |
| VPDDGVLLSVLE | 0.7182 ± 0.0017 |
| PCPVLPLPPFYL | 0.728 ± 0.0074 |
| LFQKRAIGGAWL | 0.742 ± 0.039 |
| VWVSRPWGRGGL | 0.681 ± 0.038 |
| GRAGQPCEGALP | 0.652 ± 0.021 |
| GGLRPLFLCCLF | 0.569 ± 0.05 |
| PLLPPSDTCSLL | 0.718 ± 0.089 |
| VSFCDVEVRFFV | 0.619 ± 0.066 |
| RILSFVSCYSLL | 0.506 ± 0.0035 |
| PSWLLFGVHGGW | 0.71 ± 0.056 |
| KNKKYKNKQKQR | 0.714 ± 0.094 |
| LLPPPPPPSTPT | 0.798 ± 0.083 |
| PSETPSPLTLCS | 0.722 ± 0.037 |
| AWSALWGAVSPY | 0.7073 ± 0.0027 |
| GGYRFCSKYKSE | 0.673 ± 0.023 |
| PPPPSPRLSHSP | 0.646 ± 0.018 |

| Sequence | protein stability index |
| --- | --- |
| ALLTWIFTCIHI | 0.571 ± 0.039 |
| RRPRIANIETDY | 0.678 ± 0.0046 |
| AVMGQRQAESPV | 0.693 ± 0.067 |
| SGVLSLVDVWTG | 0.747 ± 0.1 |
| SPPPLNTFPPLP | 0.691 ± 0.025 |
| FGVDGVGVVVGY | 0.669 ± 0.0086 |
| VGPLIGQVGIDT | 0.748 ± 0.014 |
| KMGRTEIWTIHL | 0.685 ± 0.053 |
| IAASCGPRYKDS | 0.632 ± 0.077 |
| RGSWRGLADSGV | 0.676 ± 0.08 |
| PPPFLTPPPPHS | 0.709 ± 0.026 |
| EPESPVTARAKP | 0.672 ± 0.031 |
| DPVGFSEMYLRV | 0.705 ± 0.0078 |
| GGEGRGAFWGGE | 0.68361 ± 0.0002 |
| SKKNKNIQKHLY | 0.728 ± 0.011 |
| PPSPHLVPYYLP | 0.677 ± 0.014 |
| SLPPSSPLPPVS | 0.665 ± 0.035 |
| PPLPPPPPLLPP | 0.6764 ± 0.0065 |
| ILSPLRHPEPTR | 0.70614 ± 9.6e-05 |
| GGWGGGGGAWSG | 0.71 ± 0.041 |
| PPLPFSRSPSSL | 0.69 ± 0.019 |
| DDWNLQEAQSLY | 0.703 ± 0.053 |
| FFPFFLSFSPPF | 0.708 ± 0.023 |
| PLPPPPPLLPTC | 0.669 ± 0.037 |
| ALPCLSPVLPFL | 0.729 ± 0.014 |

| Sequence | protein stability index |
| --- | --- |
| CASGPLQPLPRA | 0.753 ± 0.084 |
| HPLPPPPRSPPS | 0.732 ± 0.011 |
| GGGGAGGRRGTQ | 0.654 ± 0.0077 |
| RWATLSREFYQI | 0.526 ± 0.023 |
| PRPLPPPPAFLP | 0.766 ± 0.08 |
| SVLALKGFCWLG | 0.562 ± 0.042 |
| SPPPAPSHPPSP | 0.73 ± 0.05 |
| GMVEVSTKTKRR | 0.719 ± 0.0092 |
| VGGGGRSTGVGK | 0.65 ± 0.044 |
| GRFSHRCGGGVW | 0.622 ± 0.046 |
| LFGIGFFSFICS | 0.537 ± 0.074 |
| SPPATPWPPDLR | 0.627 ± 0.051 |
| ESLFFPFAFSSV | 0.809 ± 0.13 |
| PLPPPPIPLAPP | 0.708 ± 0.054 |
| RRNPTCPSGTQK | 0.7 ± 0.021 |
| PHSVPPLTFPTS | 0.689 ± 0.037 |
| KKSRLNRIVMRH | 0.664 ± 0.073 |
| VGQVGAGAVPVG | 0.677 ± 0.037 |
| SPSLSPSPPSPS | 0.6699 ± 0.0039 |
| LGRSRYADVQFC | 0.77 ± 0.021 |
| IGWCRLRDRLVS | 0.556 ± 0.048 |
| LLNAARIGNKGP | 0.663 ± 0.06 |
| PSKTTALTGPDP | 0.737 ± 0.008 |
